According to patent US6750028B1, “Anti-fibrotic agent assay” (Ethicon, Inc, priority 1996, dated 2004):

B1: IGFBP-1: Purified rat Insulin-like Growth Factor Binding Protein 1 (protein, UniProt P21743 26-272, looked up)
Insulin-like growth …: APQPWHCAPCTAERLELCPPVPASCPEISRPAGCGCCPTCALPLGAACGVATARCAQGLSCRALPGEPRPLHALTRGQGACVLEPAAPATSSLSGSQHEEAKAAVASEDELAESPEMTEEQLLDSFHLMAPSREDQPILWNAISTYSSMRAREITDLKKWKEPCQRELYKVLERLAAAQQKAGDEIYKFYLPNCNKNGFYHSKQCETSLDGEAGLCWCVYPWSGKKIPGSLETRGDPNCHQYFNVQN
B2: IGFBP-2: Purified rat Insulin-like Growth Factor Binding Protein 2 (protein, UniProt P12843 35-304, looked up)
Insulin-like growth …: EVLFRCPPCTPERLAACGPPPDAPCAELVREPGCGCCSVCARQEGEACGVYIPRCAQTLRCYPNPGSELPLKALVTGAGTCEKRRVGATPQQVADSEDDHSEGGLVENHVDGTMNMLGGSSAGRKPPKSGMKELAVFREKVNEQHRQMGKGAKHLSLEEPKKLRPPPARTPCQQELDQVLERISTMRLPDDRGPLEHLYSLHIPNCDKHGLYNLKQCKMSLNGQRGECWCVNPNTGKPIQGAPTIRGDPECHLFYNEQQENDGAHAQRVQ

System: TGF-β1 activation
Assay: Macrophage activation assay (IC-21 macrophages, LPS, fetal fibroblast conditioned media, ELISA)
Format: cell-based, mouse
Experimental: Cultured macrophages were lifted from the dish with 3 ml of PBS. The PBS was balanced with 15 ml of RPMI-1640 containing 10% FBS. The cells were counted and then seeded in 100 mm plates at 1×10^6 cells/dish. When the cultured macrophages reached approximately 70% confluency (2-3 days) they were washed with PBS and RPMI-1640 medium containing 5% FBS and 10 ng/ml LPS was applied (FIG. 1). After 24 h of activation with LPS the cells were washed gently with PBS. At this point conditioned medium from confluent fetal dermal fibroblasts was collected and 5 ml was distributed into each dish containing macrophages. The cells were incubated for an additional 24 h, the media were collected, spun down at 600×g for 10 min and stored at 4° C. before TGF-β1 evaluation by ELISA. Each condition was done in duplicate. The cells, washed with PBS, were harvested for total RNA extraction.
Fetal dermal fibroblasts were seeded in 100 mm dishes at 1×10^6 cell/dish. The cells were grown to confluency (2-3 days). The cultures were washed with PBS and fresh medium, either DMEM supplemented with 10% FBS or AIM-V medium (a serum free medium) for serum-free conditions, was applied for 24 h (FIG. 1). The medium was collected and combined in order to obtain a homogenous pool of latent TGF-β1. The collection of the medium was done just prior to application in the macrophage assay. […]

| Molecule | effect on IGF-II-mediated inhibition of TGF-β1 activation, in words |
| --- | --- |
| B1 | able to reverse this inhibition |
| B2 | no effect on IGF-II action |
